Experimental findings from PMC9338935, “Structural determinants of DNA recognition by the NO sensor NsrR and related Rrf2-type [FeS]-transcription factors” (Communications Biology, 2022) are described below.

Data set [1] has as its target T1, [4Fe-4S]-NsrR (ScNsrR) (Streptomyces coelicolor, UniProt Q9L132 1-148).
T1 sequence: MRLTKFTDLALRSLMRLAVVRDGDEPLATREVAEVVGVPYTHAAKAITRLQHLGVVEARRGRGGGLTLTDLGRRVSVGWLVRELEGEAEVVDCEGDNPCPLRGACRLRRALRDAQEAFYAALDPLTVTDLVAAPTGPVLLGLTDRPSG
Put plainly: EMSA; [4Fe-4S] cluster; EMSA: 10 mM Tris, 54 mM KCl, 0.3% glycerol, 1.32 mM GSH, pH 7.5, on ice, ~4 nM DNA, up to ~20-fold molar excess [4Fe-4S] NsrR. Crystal complex: 50 mM Tris pH 8.0, 500 mM NaCl, 5% glycerol, 20 C, anaerobic; grown in PEG, 30 mM MgCl2, 30 mM CaCl2, MOPS/HEPES pH 8.0. The conditions noted are these: protein: recombinant; chain copies: 2; label: 6-FAM (from PCR primers); blunt. A general note: In EMSA bound probe runs differently from free probe, usually more slowly.

For data set [2], the target named is T1, [4Fe-4S]-NsrR (ScNsrR). Put plainly: EMSA; [4Fe-4S] cluster; no clear difference from wild type; EMSA: 10 mM Tris, 54 mM KCl, 0.3% glycerol, 1.32 mM GSH, pH 7.5, on ice, ~4 nM DNA, up to ~20-fold molar excess [4Fe-4S] NsrR. Crystal complex: 50 mM Tris pH 8.0, 500 mM NaCl, 5% glycerol, 20 C, anaerobic; grown in PEG, 30 mM MgCl2, 30 mM CaCl2, MOPS/HEPES pH 8.0. The conditions noted are these: protein: recombinant; chain copies: 2; label: 6-FAM (from PCR primers); blunt.

The target in data set [3] is T1, [4Fe-4S]-NsrR (ScNsrR). Put plainly: EMSA; [4Fe-4S] cluster; essentially stoichiometric, no significant difference; EMSA: 10 mM Tris, 54 mM KCl, 0.3% glycerol, 1.32 mM GSH, pH 7.5, on ice, ~4 nM DNA, up to ~20-fold molar excess [4Fe-4S] NsrR. Crystal complex: 50 mM Tris pH 8.0, 500 mM NaCl, 5% glycerol, 20 C, anaerobic; grown in PEG, 30 mM MgCl2, 30 mM CaCl2, MOPS/HEPES pH 8.0. The note with it: protein: recombinant; chain copies: 2; label: 6-FAM (from PCR primers); blunt.

Data set [4] concerns the molecule itself. As to the kind of experiment: crystal structure; [4Fe-4S]-ScNsrR dimer complexed with a 23 bp hmpA1 operator dsDNA fragment; 3.0 Å; crystallised anaerobically; space group P6_(5).
Data set [5] has as its target T1, [4Fe-4S]-NsrR (ScNsrR). Put plainly: X-ray crystallography; [4Fe-4S] cluster; EMSA: 10 mM Tris, 54 mM KCl, 0.3% glycerol, 1.32 mM GSH, pH 7.5, on ice, ~4 nM DNA, up to ~20-fold molar excess [4Fe-4S] NsrR. Crystal complex: 50 mM Tris pH 8.0, 500 mM NaCl, 5% glycerol, 20 C, anaerobic; grown in PEG, 30 mM MgCl2, 30 mM CaCl2, MOPS/HEPES pH 8.0. The note with it: protein: recombinant; chain copies: 2; blunt.

Where a chain is given by its changes, count along the chain named.

B1: Av003 wild type hmpA1 probe (dsDNA)
DNA 1: CTAAAACGACGGCCAGTCGGGATGACGGGCGGCGGCCCCCTGAGGCCGTCGAGCTGTGGCCTAAAACACGAATATCATCTACCAATTAAGGAGTCGCTGTGCTCTCCGAACAGTCCGTTCCCGTGGTCCGAGCCGTCATAGCTGTTTCCTG
DNA 2: CAGGAAACAGCTATGACGGCTCGGACCACGGGAACGGACTGTTCGGAGAGCACAGCGACTCCTTAATTGGTAGATGATATTCGTGTTTTAGGCCACAGCTCGACGGCCTCAGGGGGCCGCCGCCCGTCATCCCGACTGGCCGTCGTTTTAG
As for B1, the binding result in data set [4Fe-4S]-NsrR (ScNsrR) [1] is given as “binds”.

B2: Av005 hmpXT2 probe (dsDNA)
DNA 1: B1 DNA 1 with T73A, C79T
DNA 2: B1 DNA 2 with G73A, A79T
For the molecule B2, the binding result in data set [4Fe-4S]-NsrR (ScNsrR) [2] is reported as “binds”.

B3: Av006 hmpA/T probe (dsDNA)
DNA 1: B1 DNA 1 with C76T, C79T
DNA 2: B1 DNA 2 with G73A, G76A
On to B3, for which the binding result in data set [4Fe-4S]-NsrR (ScNsrR) [3] is “binds”.

B4: Av007 hmpG/C probe (dsDNA)
DNA 1: B1 DNA 1 with T73C, A74G, T75C, A77G, T78C
DNA 2: B1 DNA 2 with A74G, T75C, A77G, T78C, A79G
For the molecule B4, in data set [4Fe-4S]-NsrR (ScNsrR) [3], the binding result was “binds”.

B5: Av004 hmpXT1 probe (dsDNA)
DNA 1: B1 DNA 1 with T75A, A77T
DNA 2: B1 DNA 2 with T75A, A77T
B5: in data set [4Fe-4S]-NsrR (ScNsrR) [2], the binding result was “binds”.

B6: [4Fe-4S]-NsrR from Streptomyces coelicolor (natural protein)
chain: T1 sequence
notes: NsrR, NO-sensing Rrf2 family transcription factor of Streptomyces coelicolor; also called ScNsrR; [4Fe-4S]-ScNsrR
The stoichiometry N is the number of molecules, sites or subunits per partner or assembly. As to B6, the “stoichiometry N” value in data set [4] came to 2.

B7: hmpA1 operator 23 bp (dsDNA)
DNA 1: AACACGAATATCATCTACCAATT
DNA 2: AATTGGTAGATGATATTCGTGTT
On to B7, for which, in data set [4Fe-4S]-NsrR (ScNsrR) [5], the binding result was “binds”.
